Here are results for two molecules from PMC3110755, “Inhibition of Cell Proliferation by an Anti-EGFR Aptamer”.

In data set [1] the target is EGFR ectodomain-Fc (human) (Homo sapiens (Human), UniProt P00533 25-645). In words: filter; DPBS, 5 mM MgCl2, 25 C, 30 min; 0.1 nM RNA. As to conditions: tags: Fc fusion (R&D Systems); label: 5'-32P.
Data set [2] has as its target ErbB2 (human) (Homo sapiens (Human), UniProt P04626 23-652). Kind of data set: filter; 10 nM RNA, 100 nM protein, DPBS 5 mM MgCl2, 25 C. Conditions: label: internal alpha-32P.

B1: E03 (ssRNA)
RNA: GGCGCUCCGACCUUAGUCUCUGUGCUAGUAUAUCGCACGGAUUUAAUCGCCGUAGAAAAGCAUGUCAAAGCCGGAACCGUGUAGCACAGCAGA
modifications: 2'-F pyrimidines
As to B1, in data set [1], the equilibrium dissociation constant (Kd) (in general, the free concentration of one partner at which half of the binding sites on the other are occupied at equilibrium, for simple one-to-one binding) was about 2.45 nM. The binding result in data set [2] is “no binding”.

B2: E07 (ssRNA)
RNA: GGCGCUCCGACCUUAGUCUCUGUGCCGCUAUAAUGCACGGAUUUAAUCGCCGUAGAAAAGCAUGUCAAAGCCGGAACCGUGUAGCACAGCAGA
modifications: 2'-F pyrimidines
In the case of B2, the binding result in data set [2] is “no binding”.
